# B1: Speedy protein E4 (Homo sapiens), A6NLX3 (parent)
# chain: MASGQARPPFEEESPQPSTTVRSPEVVVDDEVPGPSAPWIDPSPQPQSLGLKRKSEWSDESEEELEEELELERAPEPEDTWVVETLCGLKMKLKRKRASSVLPEHHEAFNRLLGDPVVQKFLAWDKDLRVSDKYLLAMVIAYFSRAGLFSWQYQRIHFFLALYLASDMEEDNQAPKQDIFSFLYGKNYSQRPLFHKLRYQLLCSMRWRTWVSPEEMEEIQAYDPEHWVWARDRTLIS
# B2: Protein FAM90A1 (Homo sapiens), Q86YD7 (parent)
# chain: MMARRDPKPGAKRLVRAQTLQKQRRAPVGPRAPPPDEEDPRLKCKNCEAFGHTARSTRCPMKCWKAALVPPNFGEKEGKENLKPWKPQVEANPGPLNKDKGEKEERPRPQDPQRKALLHIFSRKPPEKPLPNQKGSTESSDYLRVASGPMPVHTTSKRPRVDPVLSDRSATEMSDRGSVLASLSPLRKASLSSSSSLGPKERQTGAAADIPQTAVRHQGPEPLLVVKPTHSSPAGGCREVPQAASKTHGLLQAVSPQAQDKRPAVTSQPCPPAATHSLGLGSNLSFGPGAKRSAPAPIQACLNFPKKPRLGPFQIPESAIQGGELGAPENLQPPPAATELGPRTSPQTGTRTPAQVLSGDRQPPHSRPCLPTAQACTMSHHPAASHDGAQPLRVLFRRLENGRWSSSLLTAPSFHSPEKPGAFLAQSPHVSEKSEGPCVRVPPSVLYEDLQVPSSSEDSDSDLE
# Variants of: B1
# Settings: with brd4_human BRD4, O60885
row,Variant,effect of a mutation on the interaction
1,V83D;L86D;M91D;L93D,disrupting interaction strength

# Variants of: B2
# Settings: with brd4_human BRD4, O60885
row,Variant,effect of a mutation on the interaction
1,V394D;F396D;W404D;S406D,disrupting interaction strength

# — IntAct's records for PubMed 35016035
